Consider one molecule from patent publication CN116284426A (SUNSHINE GUOJIAN PHARMACEUTICAL SHANGHAI CO LTD, dated 2023).

The target of experiment [1] is T1, GUCY2C-Fc蛋白 (human GUCY2C extracellular region fused to human IgG1 Fc) (human, UniProt P25092 24-430).
T1 construct: extracellular domain; Made in HEK-293F with an unspecified N-terminal signal peptide; also called 人GUCY2C-Fc蛋白; not shown: human IgG1 Fc at the C-terminus in place of the 6xHis tag
As to the kind of experiment: ELISA, GUCY2C-Fc coated, anti-human IgG Fab HRP.

Experiment [2] addresses T2, GUCY2C-His蛋白 (human GUCY2C extracellular region with C-terminal 6xHis) (human, UniProt P25092 24-430).
T2 construct: extracellular domain; Made in HEK-293F with an unspecified N-terminal signal peptide; also called 人GUCY2C-His蛋白
The experiment in a line: ELISA, GUCY2C-His coated, anti-human IgG Fab HRP (Table 17).

Experiment [3] addresses T3, GUCY2C on tumour cells (CW2, CW2-GCC#1, T84) (human, UniProt P25092 24-1073).
T3 construct: whole, on cells; Only CW2-GCC#1 is expressly said to express GUCY2C; also called 鸟苷酸环化酶2C; 人结肠癌细胞CW2
As to the kind of experiment: flow cytometry on CW2-GCC#1 cells (GUCY2C-overexpressing CW2). On the technique in general: A flow cytometer gives signals particle by particle.

In experiment [4] the target is T2, GUCY2C-His蛋白 (human GUCY2C …). The experiment in a line: ELISA, GUCY2C-His coated, anti-human IgG Fab HRP (Table 9). Background: ELISA stands for enzyme-linked immunosorbent assay.
Experiment [5] addresses T1, GUCY2C-Fc蛋白 (human GUCY2C extracellular …). As to the kind of experiment: ELISA, GUCY2C-Fc coated, anti-human IgG Fab HRP (Table 18).
Experiment [6] concerns the target T2, GUCY2C-His蛋白 (human GUCY2C …). The experiment in a line: ELISA, GUCY2C-His coated, anti-human IgG Fc HRP.
The target of experiment [7] is T1, GUCY2C-Fc蛋白 (human GUCY2C extracellular …). As to the kind of experiment: ELISA, GUCY2C-Fc coated, anti-human IgG Fab HRP (Table 11).

T2 sequence (P25092 other isoform, or with tags, fused parts or gaps): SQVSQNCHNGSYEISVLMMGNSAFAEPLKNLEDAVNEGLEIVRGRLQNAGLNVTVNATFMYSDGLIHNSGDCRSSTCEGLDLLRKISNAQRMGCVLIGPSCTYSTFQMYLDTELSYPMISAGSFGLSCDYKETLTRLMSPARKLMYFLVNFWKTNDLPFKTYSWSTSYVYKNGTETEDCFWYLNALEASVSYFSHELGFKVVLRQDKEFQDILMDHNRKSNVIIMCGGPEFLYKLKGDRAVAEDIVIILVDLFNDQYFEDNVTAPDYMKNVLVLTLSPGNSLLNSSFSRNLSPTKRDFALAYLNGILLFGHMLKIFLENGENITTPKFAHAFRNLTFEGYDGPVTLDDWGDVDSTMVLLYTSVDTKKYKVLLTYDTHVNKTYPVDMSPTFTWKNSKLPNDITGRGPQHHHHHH
T1 sequence (P25092 24-430 limits assumed): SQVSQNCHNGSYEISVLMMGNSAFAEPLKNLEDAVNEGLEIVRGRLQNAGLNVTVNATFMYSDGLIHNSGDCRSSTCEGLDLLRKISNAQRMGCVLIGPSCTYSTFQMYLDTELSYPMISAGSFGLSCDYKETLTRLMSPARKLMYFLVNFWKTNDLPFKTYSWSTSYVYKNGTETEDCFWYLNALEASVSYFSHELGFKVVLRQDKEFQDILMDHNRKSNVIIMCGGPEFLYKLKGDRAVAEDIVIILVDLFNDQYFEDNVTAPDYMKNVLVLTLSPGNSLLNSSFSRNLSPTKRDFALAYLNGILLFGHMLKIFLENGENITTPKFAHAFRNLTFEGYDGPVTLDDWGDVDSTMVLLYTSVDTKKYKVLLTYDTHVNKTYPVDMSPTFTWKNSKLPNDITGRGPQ
T3 sequence (P25092 24-1073): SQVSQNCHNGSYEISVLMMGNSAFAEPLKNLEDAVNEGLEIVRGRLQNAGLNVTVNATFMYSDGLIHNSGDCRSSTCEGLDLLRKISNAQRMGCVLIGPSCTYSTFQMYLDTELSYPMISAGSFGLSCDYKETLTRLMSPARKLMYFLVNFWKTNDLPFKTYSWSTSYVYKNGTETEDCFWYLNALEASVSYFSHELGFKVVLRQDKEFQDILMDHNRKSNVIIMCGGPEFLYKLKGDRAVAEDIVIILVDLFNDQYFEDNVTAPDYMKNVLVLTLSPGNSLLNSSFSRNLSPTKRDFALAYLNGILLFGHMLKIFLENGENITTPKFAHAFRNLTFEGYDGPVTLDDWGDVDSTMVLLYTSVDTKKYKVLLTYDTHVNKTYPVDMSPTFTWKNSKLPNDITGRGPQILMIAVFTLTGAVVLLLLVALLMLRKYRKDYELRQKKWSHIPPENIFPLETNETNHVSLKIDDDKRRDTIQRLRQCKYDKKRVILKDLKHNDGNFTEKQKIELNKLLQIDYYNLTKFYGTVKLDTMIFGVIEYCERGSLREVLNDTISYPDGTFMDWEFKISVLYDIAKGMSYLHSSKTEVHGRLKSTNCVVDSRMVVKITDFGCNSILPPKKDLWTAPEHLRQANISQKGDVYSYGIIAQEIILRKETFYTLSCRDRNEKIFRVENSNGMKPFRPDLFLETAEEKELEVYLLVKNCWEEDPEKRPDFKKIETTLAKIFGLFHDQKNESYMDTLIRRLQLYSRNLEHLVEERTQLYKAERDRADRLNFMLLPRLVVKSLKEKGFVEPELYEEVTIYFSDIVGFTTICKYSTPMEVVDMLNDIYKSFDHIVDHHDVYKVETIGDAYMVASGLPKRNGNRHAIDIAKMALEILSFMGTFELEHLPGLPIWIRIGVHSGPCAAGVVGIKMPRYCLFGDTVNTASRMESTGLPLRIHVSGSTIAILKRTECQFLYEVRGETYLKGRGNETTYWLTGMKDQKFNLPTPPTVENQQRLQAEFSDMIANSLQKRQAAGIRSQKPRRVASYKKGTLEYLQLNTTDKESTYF

B1: 32H2-Hu (antibody, V domains shown)
VH: EVQLVESGGGLVKPGGSLRLSCAASGFSFRTYAMSWVRQAPGKSLEWVATISSGSSYIYYPDSVKGRFTVSRDNAKNSLYLQMNSLRAEDTAVYYCTCYRMETFEYWGQGTLVTVSS
VL: DVVMTQSPLSLPVTLGQPASISCRSSQSLVYNNGNTYLHWYQQRPGQSPRLLIYKVSNRFSGVPDRFSGSGSGTDFTLKISRVEAEDVGVYFCSQSTHVPLTFGQGTKVEIKR
By EC50 is commonly meant the concentration that produces a half-maximal response. A higher EC50 goes with weaker potency. As for B1, the EC50 in experiment [1] was found to be 0.452 nM; in experiment [2], 0.244 nM; in experiment [3], 96.3 nM; in experiment [4], 0.24 nM; in experiment [5], 0.759 nM; in experiment [6], 0.468 nM. The molecule also came in with an EC50 in experiment [7] of 0.23 nM.
